Test results published in FireProtDB (doi:10.1074/jbc.m112.408906).

B1: Myocilin, Q99972 (parent)
chain: MRFFCARCCSFGPEMPAVQLLLLACLVWDVGARTAQLRKANDQSGRCQYTFSVASPNESSCPEQSQAMSVIHNLQRDSSTQRLDLEATKARLSSLESLLHQLTLDQAARPQETQEGLQRELGTLRRERDQLETQTRELETAYSNLLRDKSVLEEEKKRLRQENENLARRLESSSQEVARLRRGQCPQTRDTARAVPPGSREVSTWNLDTLAFQELKSELTEVPASRILKESPSGYLRSGEGDTGCGELVWVGEPLTLRTAETITGKYGVWMRDPKPTYPYTQETTWRIDTVGTDVRQVFEYDLISQFMQGYPSKVHILPRPLESTGAVVYSGSLYFQGAESRTVIRYELNTETVKAEKEIPGAGYHGQFPYSWGGYTDIDLAVDEAGLWVIYSTDEAKGAIVLSKLNPENLELEQTWETNIRKQSVANAFIICGTLYTVSSYTSADATVNFAYDTGTGISKTLTIPFKNRYKYSSMIDYNPLEKKLFAWDNLNMVTYDIKLSKM

Variants of: B1
Conditions: Homo sapiens, pH 6, Thermal, CD, Sodium acetate 10mM, reversible: no, structure 4WXQ, whole UniProt chain shown

Variant	Tm (CaCl2 1mM) [°C]	change of melting temperature, mutant - wild type (higher = more stable) (CaCl2 1mM) [°C]	Tm (CaCl2 10mM) [°C]	change of melting temperature, mutant - wild type (higher = more stable) (CaCl2 10mM) [°C]
K423E	34.2	-18.8	43.2	-16.4
T377M	44.3	-8.7	50.6	-9
G364V	45	-8	51.9	-7.7
G252R	43	-10	51.5	-8.1
D384A	42.5	-10.5	–	–
A427T	48.3	-4.7	55.2	-4.4
P481L	45.5	-7.5	51.2	-8.4
S502P	41	-12	49.9	-9.7
G246R	42.5	-10.5	50.6	-9
I477S	39.7	-13.3	48.2	-11.4
I477N	37.7	-15.3	–	–
N480K	42.4	-10.6	48.1	-11.5
E323K	44	-9	50.3	-9.3
D380A	46.6	-6.4	45.1	-14.5
D273A	21.7	-31.3	21.1	-38.5
I499F	42.8	-10.2	50.4	-9.2
G367R	42.7	-10.3	50.9	-8.7
V426F	41.5	-11.5	49.9	-9.7
Y437H	40.3	-12.7	48.6	-11
C433R	40.4	-12.6	49.4	-10.2
E385A	39.7	-13.3	49.7	-9.9
R272G	41	-12	48.6	-11
